Substitutions are numbered along the chain they refer to.
T1: M. tuberculosis Rv0020c (M. tuberculosis H37Rv, UniProt P71590 1-527)
T1 sequence: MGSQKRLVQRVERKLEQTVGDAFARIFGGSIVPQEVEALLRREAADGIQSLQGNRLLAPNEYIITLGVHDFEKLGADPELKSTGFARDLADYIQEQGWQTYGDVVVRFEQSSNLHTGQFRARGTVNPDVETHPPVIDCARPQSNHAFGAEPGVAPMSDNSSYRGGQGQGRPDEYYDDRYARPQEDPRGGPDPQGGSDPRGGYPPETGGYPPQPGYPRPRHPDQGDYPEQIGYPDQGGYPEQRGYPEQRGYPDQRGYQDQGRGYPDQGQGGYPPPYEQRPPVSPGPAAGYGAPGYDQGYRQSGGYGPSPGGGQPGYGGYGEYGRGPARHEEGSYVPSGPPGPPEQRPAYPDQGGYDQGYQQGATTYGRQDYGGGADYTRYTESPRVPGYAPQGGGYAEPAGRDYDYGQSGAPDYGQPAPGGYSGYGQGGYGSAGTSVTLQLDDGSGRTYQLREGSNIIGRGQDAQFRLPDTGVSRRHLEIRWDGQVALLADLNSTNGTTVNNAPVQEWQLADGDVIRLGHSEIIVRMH

B1: MBP-tagged MupDivIVA-P (Mup012c residues 1-87, phosphorylated by co-expression with PknQ) (natural protein, M. ulcerans Agy99 (plasmid pMUM001), UniProt Q6MZ92 1-87, looked up)
chain: MSHSELLDPALPKSPFGKQGYRYDDVDVFLRLIADELQGSDLSESDIHSITFRCAAPLTRGYDTESVDRFLDRIAETIARGHGDEGQ
notes: also called phosphorylated MupDivIVA
B2: MBP-tagged MupDivIVA S43/45/49A triple mutant (natural protein)
chain: B1 chain with S43A, S45A, S49A

Target: T1, M. tuberculosis Rv0020c
Experiment: ELISA
Details: both partners purified

Binder | binding result
B1 | binds
B2 | binds

Source: PMC4238996 (PLoS Neglected Tropical Diseases, 2014)
